According to article PMC2722939:

These substances were tested on O=P(O)(O)O[C@@H]1O[C@H](CO)[C@@H](O)[C@H](O)[C@H]1O (assay: purified protein). Settings: 5 μM βG1,6bisP, 2 mM MgCl2, 50 mM K+HEPES pH 7.0, 25 °C.

| Substance | Km | kcat | kcat/Km |
| --- | --- | --- | --- |
| L. lactis β-PGM (wild type) (Lactococcus lactis subsp. lactis Il1403) | 31 ± 2 µM | 175 s⁻¹ | 6e+06 M⁻¹ s⁻¹ |
| L. lactis β-PGM (wild type) (Lactococcus lactis subsp. lactis Il1403; H20A) | 41 ± 3 µM | 0.026 s⁻¹ | 600 M⁻¹ s⁻¹ |
| L. lactis β-PGM (wild type) (Lactococcus lactis subsp. lactis Il1403; H20N) | 170 ± 10 µM | 0.62 s⁻¹ | 4000 M⁻¹ s⁻¹ |
| L. lactis β-PGM (wild type) (Lactococcus lactis subsp. lactis Il1403; H20Q) | 45 ± 1 µM | 21.9 s⁻¹ | 500000 M⁻¹ s⁻¹ |
| L. lactis β-PGM (wild type) (Lactococcus lactis subsp. lactis Il1403; K76A) | 66 ± 1 µM | 1.56 s⁻¹ | 20000 M⁻¹ s⁻¹ |
| L. lactis β-PGM (wild type) (Lactococcus lactis subsp. lactis Il1403; T16P) | 4.8 ± 0.3 µM | 0.026 s⁻¹ | 5000 M⁻¹ s⁻¹ |
